Biological target: T1, Abp1 SH3 (ABP1_YEAST), P15891
T1 chain: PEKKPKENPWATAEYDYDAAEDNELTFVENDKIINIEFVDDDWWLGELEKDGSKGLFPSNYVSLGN
Assay: SPOT array

normalised SPOT signal, Boehringer light units (BLU); mean over the file's lines of this peptide	Binder
170	FSEKPEETPNPLKP [YKL077W 64-77]
499	GNGMYKIPSNTKP [YPL116W 648-660]
106	FRGDYGNNISPERP [YAL017W 277-290]
78.1	GDHLQNDPLSLRP [YOR316C 398-410]
169	GMTKTPETSPPKRP [YDR200C 28-41]
56.7	GGKYQGFGSTPAKP [YDL226C 208-221]
1130	GATFAVKEFRPRKP [YOR267C 238-251]
2180	FSLMFNTSRLPGKP [YML042W 214-227]
353	FQLPTRLPAFERP [YDL150W 307-319]
90.9	GASTIPASNNPSKP [YIL130W 103-116]
125	FVYPFIRRYTPLKP [YKR093W 407-420]
131	GLKYAQSPKFSKP [YKL212W 605-617]
41900	GKDKSRPPRPPPKP [YIL095W 743-756]
160	GATTLKPATLPAKP [YIL038C 384-397]
140	GKDIPFFPSSEKP [YDR443C 544-556]
210	GINMKKGFINPRKP [YLL021W 560-573]
73.6	GKIELTSPITSKP [YEL019C 178-190]
80	GISHTRMPTESRP [YKL165C 94-106]
79.6	GAGVLAMPFAFKP [YBL089W 68-80]
135	GLNDSTEPVLHKP [YIL044C 131-143]

normalised SPOT signal, Boehringer light units (BLU); mean over the file's lines of this peptide	Binder
478	FSGSLKLPNSPRP [YGL135W 49-61]
8770	GPAPPPPPRASRP [YOR181W 384-396]
136	GIFNALPPPNTKP [YDL046W 25-37]
92	FSHTGLTSFTPERP [YOL138C 597-610]
51.2	GDKYQVDPKTSKP [YLR454W 1837-1849]
217	FTDNSLLPSLIKP [YOR317W 178-190]
65.2	GKSRRKTNTKPSRP [YPL137C 17-30]
41.6	GKLVDLTPASMKP [YGR196C 563-575]
318	GNIVEIAPLIPKKP [YDR080W 593-606]
97	FYYWLGVPSFQRP [YHR171W 136-148]
77.6	GDEGNRNITAPPRP [YHR031C 65-78]
147	FSDKNTIPPNEKP [YPR022C 372-384]
204	GKLLKSYPTSARP [YGR238C 700-712]
13.4	GEGHSDQPQNPKP [YML118W 352-364]
143	FSVLIYESLDPDRP [YIR032C 164-177]
4290	FTNLQAKPLVGKP [YAR002W 429-441]
430	GGIIPTVNGKPVRP [YBR012W-A 198-211]
196	FVFFKSLPDLPKP [YML104C 41-53]
773	FREPERKTSVPVRP [YIL156W 221-234]
124	GLQGDQFPRQQRP [YDR240C 296-308]

normalised SPOT signal, Boehringer light units (BLU); mean over the file's lines of this peptide	Binder
292	GNPLYTTPKTPPRP [YKR028W 953-966]
51.6	GDAFQDVEGKPLRP [YOR229W 116-129]
82.3	GALLDEAPEHPRP [YNL314W 80-92]
20	FYILDKFPLEIRP [YLL018C 442-454]
103	FQVVLDTPQGLKP [YFR037C 187-199]
121	GDLGKEFGTTPEKP [YPL231W 188-201]
48	GDTVYIVHWEPSKP [YIL154C 237-250]
224	GKNKMHEPKNGRP [YOR006C 4-16]
158	FSAAEIWPTKGKP [YMR228W 229-241]
108	GKSIYFSDIVPSKP [YJL186W 204-217]
67.3	GSNATADVSPPKKP [YDL118W 75-88]
67.2	FSGVTNQPSPIRP [YER129W 662-674]
170	FTYAYVSPTKLKP [YGL140C 277-289]
57.2	GIKTRKFVFNPPKP [YOR065W 294-307]
62.2	GAGILAMPYAFKP [YER119C 18-30]
97.4	FWKSLYPELTPYKP [YKR051W 189-202]
70.9	GEEHEPVVEIPKRP [YDR342C 45-58]
67.5	GDELSQGPNVLKP [YDR305C 168-180]
